Laboratory results published in patent US20200002434A1 (BIOSION, published 2020).
Numbering of substitutions follows the chain as printed. Names may count otherwise.

Legend:
[1] = target: T1, human ErbB2 on ErbB2-positive cells (human, UniProt P04626 23-1255); experiment: cell-based or functional assay
[2] = target: T2, recombinant Macaca mulatta ErbB2-ECD (Macaca mulatta, UniProt I0FM22 23-652); experiment: indirect ELISA, coated ErbB2-ECD 1 ug/ml
T2 construct: extracellular domain
Experimental: (§1) Using indirect ELISA described in Example 1, the binding activity of antibodies of this invention to recombinant ErbB2-ECD derived from different species such as mouse, rat, Macaca mulatta, Macaca fascicularis and human, was examined. Briefly. Coat 96-well ELISA plates with 1 ug/ml recombinant ErbB2-ECD of different species with 100 ul/well and incubate at 4° C. for overnight. Remove the coating solution by discarding and tapping gently on a filter paper. Add 200 ul/well blocking buffer, incubate at 37° C. for 1-2 hours. Add purified antibody of this invention and incubate at 37° C. for one hour. Wash the plate 3 times with PBST, add goat anti-mouse IgG-HRP 100 ul/well, incubate at 37° C. for one hour. Wash the plate 3 times with PBST, add 100 ul/well TMB after 15 min, add 50 ul/well 1N HCl. Read the plate with Microplate Reader at 450 nm wavelength.

[3] = target: T3, recombinant rat ErbB2-ECD (rat, UniProt P06494 23-654); experiment: indirect ELISA, coated ErbB2-ECD 1 ug/ml
T3 construct: extracellular domain
T3 sequence (P06494 23-654): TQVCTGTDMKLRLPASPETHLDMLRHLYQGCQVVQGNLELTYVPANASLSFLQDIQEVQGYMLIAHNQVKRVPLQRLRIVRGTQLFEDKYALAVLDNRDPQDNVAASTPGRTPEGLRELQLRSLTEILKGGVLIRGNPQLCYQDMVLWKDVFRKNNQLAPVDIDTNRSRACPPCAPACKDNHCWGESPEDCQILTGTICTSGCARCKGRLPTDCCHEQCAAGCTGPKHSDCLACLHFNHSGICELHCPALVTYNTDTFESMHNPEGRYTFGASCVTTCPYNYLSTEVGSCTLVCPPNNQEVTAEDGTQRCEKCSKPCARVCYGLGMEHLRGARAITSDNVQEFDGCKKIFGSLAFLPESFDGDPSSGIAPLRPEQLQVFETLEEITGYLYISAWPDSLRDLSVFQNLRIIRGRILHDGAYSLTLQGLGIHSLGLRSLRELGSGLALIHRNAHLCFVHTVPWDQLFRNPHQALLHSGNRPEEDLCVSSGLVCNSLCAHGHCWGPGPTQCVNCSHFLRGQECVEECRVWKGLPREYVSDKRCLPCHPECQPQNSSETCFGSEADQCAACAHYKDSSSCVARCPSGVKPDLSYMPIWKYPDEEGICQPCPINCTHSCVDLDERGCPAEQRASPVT
Experimental: as §1

[4] = target: T4, recombinant mouse ErbB2-ECD (mouse, UniProt P70424 23-653); experiment: indirect ELISA, coated ErbB2-ECD 1 ug/ml
T4 construct: extracellular domain
T4 sequence (P70424 23-653): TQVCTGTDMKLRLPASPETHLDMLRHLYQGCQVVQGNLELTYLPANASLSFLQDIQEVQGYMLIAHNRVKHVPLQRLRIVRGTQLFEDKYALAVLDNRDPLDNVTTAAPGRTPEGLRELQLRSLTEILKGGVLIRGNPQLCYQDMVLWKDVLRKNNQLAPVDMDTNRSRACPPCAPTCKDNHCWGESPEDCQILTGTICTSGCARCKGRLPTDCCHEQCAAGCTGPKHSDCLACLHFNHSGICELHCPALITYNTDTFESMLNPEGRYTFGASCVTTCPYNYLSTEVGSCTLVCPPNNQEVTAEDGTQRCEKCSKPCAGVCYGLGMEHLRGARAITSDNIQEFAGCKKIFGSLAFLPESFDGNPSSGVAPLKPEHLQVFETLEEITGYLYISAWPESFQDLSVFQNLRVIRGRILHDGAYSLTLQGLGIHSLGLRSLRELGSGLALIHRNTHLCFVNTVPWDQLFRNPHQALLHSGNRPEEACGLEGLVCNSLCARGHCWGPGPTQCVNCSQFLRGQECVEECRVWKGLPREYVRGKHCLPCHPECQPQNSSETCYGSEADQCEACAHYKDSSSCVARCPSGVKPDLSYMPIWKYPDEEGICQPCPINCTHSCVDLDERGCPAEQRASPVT
Experimental: as §1

[5] = target: T5, recombinant human ErbB2 extracellular domain (ErbB2-ECD) (human, UniProt P04626 23-652); experiment: capture ELISA, coated antibody, biotin-human ErbB2-ECD titrated
T5 construct: extracellular domain; Coated on plates or used biotin-labeled in solution (capture ELISA); also called Human ErbB2-ECD; rhErbB2
Experimental: (§2) The corresponding purified IgG of five antibodies of this invention were also evaluated for their binding activity to recombinant human ErbB2 by capture ELISA. The procedure is briefly described as following: The 96-well plates were coated with 0.5 μg/ml anti-ErbB2 antibody overnight, blocked by 1% BSA in PBST at 37° C. for one hour. Add serial diluted sample of biotin-human ErbB2-ECD started with 2 μg/ml with 1:5 serial dilution. Wash the plate 3 times with PBST and add 100 ul of HRP-streptavidin (1:5000) to each well. Incubate for another 40 min at 37° C. Wash the plate 3 times with PBST and add 100 ul/well of TMB to develop at RT for 15 min followed by quenching with 50 ul 1N HCl. Read the plates at 450 nm for OD's value. Calculate the binding EC50 by using Prism software and the results are in Table 8 below

[6] = target: T2, recombinant Macaca mulatta ErbB2-ECD; experiment: indirect ELISA, coated ErbB2-ECD
Experimental: as §1
(§3) Following the same method described in Example 5, the binding activity of the chimeric antibodies of this invention was examined for binding recombinant ErbB2-ECD derived from different species such as mouse, rat Macaca mulatta, Macaca fasciculari and human.

[7] = target: T3, recombinant rat ErbB2-ECD; experiment: indirect ELISA, coated ErbB2-ECD
Experimental: as §1, §3

[8] = target: T4, recombinant mouse ErbB2-ECD; experiment: indirect ELISA, coated ErbB2-ECD
Experimental: as §1, §3

[9] = target: T5, recombinant human ErbB2 extracellular …; experiment: capture ELISA, recombinant ErbB2-ECD
Experimental: as §2
The variable domains of the heavy and light chain of the anti-ErbB2 monoclonal antibodies (Table 12, above) were cloned in-frame to human IgG1 heavy-chain and kappa light-chain constant regions, respectively.

[10] = target: T1, human ErbB2 on ErbB2-positive cells; experiment: cell-based or functional assay; remark: listed apart in the source
[11] = target: T5, recombinant human ErbB2 extracellular …; experiment: capture ELISA, recombinant ErbB2-ECD; remark: listed apart in the source
[12] = target: T5, recombinant human ErbB2 extracellular …; experiment: capture ELISA, recombinant ErbB2-ECD; remark: listed apart in the source

B1: 5G9 mouse anti-ErbB2 monoclonal antibody (antibody, mouse IgG1, V domains shown)
VH: QVQLQQSGAELARPGASVKMSCKTSGYTFSSYTIHWVKQRPGQGLDWIGYINPSSDYTAYNQKFRDKATLTADQSSNTAYMQLSSLASADSAVYYCARASAFSLDFWGQGTTLTVSS
VL: DIQMTQSPSSLSASLGGKVTISCKASHDIDRYIAWYQHKPGKGPRLLIHYTSTLQPGIPSRFSGSGSGRDYSFSISNLEPEDVATYYCLNYDNLLWTFGGGTKLEIT
notes: also called 5G91B42A3; IgG 5G9
B1 was tested, and the “BT474 cell proliferation inhibition IC50 (hIgG + 5G9)” value [1] was about 1330 pM, the binding result [2] was “binds” and the binding result [3] was “no binding”. The binding result [4] was “no binding” and the EC50 [5] was 499 pM.

B2: 4C9 chimera (antibody, V domains shown)
VH: B1 VH with T24A, S30T, I34M, D56G, A59T, R65K, Q74K, N77S, F102Y, F106Y
VL: B1 VL with K18R, S22T, V83I, N90K
notes: also called 4C9 chimeric antibody
B2: binds [6]; no binding [7]; no binding [8]. It also gave an EC50 [9] of 114 pM.

B3: 4C9 mouse anti-ErbB2 monoclonal antibody (antibody, mouse IgG1, V domains shown)
VH: B1 VH with T24A, S30T, I34M, D56G, A59T, R65K, Q74K, N77S, F102Y, F106Y
VL: B1 VL with K18R, S22T, V83I, N90K
notes: also called 4C9G3F5; IgG 4C9
In the case of B3, the “BT474 cell proliferation inhibition IC50 (hIgG + 4C9)” value [1] is reported as 471 pM, the “Internalization rate in SKBR3 cells, FITC signal, 2-hour” value [10] is reported as 23.8 and the binding result [2] is reported as “binds”. The binding result [3] was “no binding”, the binding result [4] was “no binding” and the EC50 [5] was 142 pM.

B4: 4H2 mouse anti-ErbB2 monoclonal antibody (antibody, mouse IgG1, V domains shown)
VH: QVQLQQSGAELARPGASVKMSCKASGFTFTSYTIHWVKQRPGQGLDWIGYINPSSGYTTYNQRFKDKATLTADKSSSTAYMQLSSLTSADSAVYYCARASAYSLDYWGQGTTLTVSS
VL: B1 VL with S22T, H27Q, D70N, V83I, N90K, T107K
notes: also called 4H2H2H9; IgG 4H2
In the case of B4, the “BT474 cell proliferation inhibition IC50 (hIgG + 4H2)” value [1] is reported as about 1160 pM, the “Internalization rate in SKBR3 cells, FITC signal, 2-hour” value [10] is reported as 17.7 and the binding result [2] is reported as “binds”. The binding result [3] was “no binding”, the binding result [4] was “no binding” and the EC50 [5] was 117 pM.

B5: 5F12 chimera (antibody, V domains shown)
VH: QVQLQQSGAELARPGASVKMSCKASGYTFTSYTMHWIKQRPGQGLEWIGYINPSSSYTNYNQNFKDKATLTADKSSSTANMQLNSLTSEDSAVYYCARASSYSLDYWGQGTALTVSS
VL: DIQMTQSPSSLSTSLGGKVTITCKASQDINKYIAWYQHKPGKGPRLLIHSTSTLYPGIPSRFSGSGSGKDYSFRITNLEPEDIATYYCLQYDNLLWTFGGGTKLGIR
notes: also called 5F12 chimeric; 5F12 chimeric antibody
B5: binds [6]; no binding [7]; no binding [8]. The EC50 [9] was 24 pM and the EC50 [11] was 43 pM.

B6: 5F12.v2 humanized antibody (antibody, V domains shown)
VH: EVQLVQSGAEVKKPGSSVKVSCKASGYTFTSYTMHWIRQAPGQGLEWIGYINPSSSYTNYNQNFKDRATLTADKSTSTAYMELSSLRSEDTAVYYCARASSYSLDYWGQGTLVTVSS
VL: DIQMTQSPSSLSASVGDRVTITCKASQDINKYIAWYQQKPGKGPKLLIHSTSTLYPGIPSRFSGSGSGKDYTFTISSLQPEDIATYYCLQYDNLLWTFGQGTKVEIK
notes: VH.v1/VL.1, back mutations 0/H38Q
An EC50 [11] of 34 pM was found for B6 in this work.

B7: 5G9.v1 humanized antibody (antibody, V domains shown)
VH: EVQLVQSGAEVKKPGSSVKVSCKTSGYTFSSYTIHWVRQAPGQGLEWIGYINPSSDYTAYNQKFRDRATLTADQSTNTAYMELSSLRSEDTAVYYCARASAFSLDFWGQGTLVTVSS
VL: B6 VL with Q27H, N30D, K31R, Q38H, S50Y, Y55Q, K69R, F73L, I83V, Q90N
notes: VH.v1/VL.v1, back mutations 0/0
An EC50 [12] of 31 pM was found for B7 in this work.

B8: 5G9.v4 humanized antibody (antibody, V domains shown)
VH: B7 VH
VL: DIQMTQSPSSLSASVGDRVTITCKASHDIDRYIAWYQHKPGKGPKLLIYYTSTLQPGIPSRFSGSGSGRDYTLTISSLQPEDVATYYCLNYDNLLWTFGQGTKVEIK
notes: VH.v1/VL.3, back mutations 0/H49Y
An EC50 [12] of 72 pM was found for B8 in this work.

B9: 5G9.v3 humanized antibody (antibody, V domains shown)
VH: B7 VH
VL: B8 VL with G43V, Y49H
notes: VH.v1/VL.2, back mutations 0/G43V
An EC50 [12] of 23 pM was found for B9 in this work.

B10: 5G9.v2 humanized antibody (antibody, V domains shown)
VH: B7 VH
VL: B8 VL with H38Q, Y49H
notes: as for B6
An EC50 [12] of 62 pM was found for B10 in this work.

B11: 5F12.v7 humanized antibody (antibody, V domains shown)
VH: B6 VH
VL: B6 VL with Q38H, Y71F
notes: VH.v1/VL.6, back mutations 0/Y71F
An EC50 [11] of 152 pM was found for B11 in this work.

B12: 5F12.v11 humanized antibody (antibody, V domains shown)
VH: B6 VH with L70I
VL: B6 VL with Q38H
notes: VH.4/VL.v1, back mutations L69I/0
An EC50 [11] of 28 pM was found for B12 in this work.

B13: 5G9.v9 humanized antibody (antibody, V domains shown)
VH: B7 VH with L70I
VL: B8 VL with Y49H
notes: VH.2/VL.v1, back mutations L69I/0
An EC50 [12] of 54 pM was found for B13 in this work.

B14: 5G9.v11 humanized antibody (antibody, V domains shown)
VH: B7 VH with N77S
VL: B8 VL with Y49H
notes: VH.4/VL.v1, back mutations N76S/0
An EC50 [12] of 81 pM was found for B14 in this work.

B15: 5G9.v6 humanized antibody (antibody, V domains shown)
VH: B7 VH
VL: B8 VL with Y49H, R69T
notes: VH.v1/VL.5, back mutations 0/R69T
An EC50 [12] of 44 pM was found for B15 in this work.

B16: 5G9.v8 humanized antibody (antibody, V domains shown)
VH: B7 VH with A68V
VL: B8 VL with Y49H
notes: VH.1/VL.v1, back mutations A67V/0
An EC50 [12] of 165 pM was found for B16 in this work.

B17: 5F12.v3 humanized antibody (antibody, V domains shown)
VH: B6 VH
VL: B6 VL with Q38H, G43A
notes: VH.v1/VL.2, back mutations 0/G43A
An EC50 [11] of 26 pM was found for B17 in this work.

B18: 5F12.v10 humanized antibody (antibody, V domains shown)
VH: B6 VH with A68V
VL: B6 VL with Q38H
notes: VH.3/VL.v1, back mutations A67V/0
An EC50 [11] of 32 pM was found for B18 in this work.

B19: 5G9.v10 humanized antibody (antibody, V domains shown)
VH: B7 VH with Q74K
VL: B8 VL with Y49H
notes: VH.3/VL.v1, back mutations Q73K/0
An EC50 [12] of 29 pM was found for B19 in this work.

B20: 5F12.v5 humanized antibody (antibody, V domains shown)
VH: B6 VH
VL: B6 VL with Q38H, I58V
notes: VH.v1/VL.4, back mutations 0/I58V
An EC50 [11] of 28 pM was found for B20 in this work.

B21: 5F12.v8 humanized antibody (antibody, V domains shown)
VH: B6 VH with I37V
VL: B6 VL with Q38H
notes: VH.1/VL.v1, back mutations I37V/0
An EC50 [11] of 18 pM was found for B21 in this work.

B22: 5F12.v9 humanized antibody (antibody, V domains shown)
VH: B6 VH with I48M
VL: B6 VL with Q38H
notes: VH.2/VL.v1, back mutations I48M/0
An EC50 [11] of 23 pM was found for B22 in this work.

B23: 5G9.v7 humanized antibody (antibody, V domains shown)
VH: B7 VH
VL: B8 VL with Y49H, Y71F
notes: as for B11
An EC50 [12] of 53 pM was found for B23 in this work.

B24: 5G9.v5 humanized antibody (antibody, V domains shown)
VH: B7 VH
VL: B8 VL with Y49H, I58V
notes: as for B20
An EC50 [12] of 13 pM was found for B24 in this work.

B25: 5F12.v6 humanized antibody (antibody, V domains shown)
VH: B6 VH
VL: B6 VL with Q38H, K69T
notes: VH.v1/VL.5, back mutations 0/K69T
An EC50 [11] of 32 pM was found for B25 in this work.

B26: 5G9.v12 humanized antibody (antibody, V domains shown)
VH: B7 VH with I48M
VL: B8 VL with Y49H
notes: VH.5/VL.v1, back mutations I48M/0
An EC50 [12] of 29 pM was found for B26 in this work.
